The text below walks through data of patent US20240318215A1.

The target in assay [1] is pMag (F1) fused to second half of 563 T7RNAP non-star variant. The assay can be described thus: cell-based or functional assay.
The target in assay [2] is pMag fused to C-terminal part of split T7 RNA polymerase, as carried on the pT7-Opto plasmid. The assay is described as follows: cell-based or functional assay.
pMag fused to C-terminal part of split T7 RNA polymerase, as carried on the pT7-Opto plasmid, sequence (chain, as listed by the source limits assumed): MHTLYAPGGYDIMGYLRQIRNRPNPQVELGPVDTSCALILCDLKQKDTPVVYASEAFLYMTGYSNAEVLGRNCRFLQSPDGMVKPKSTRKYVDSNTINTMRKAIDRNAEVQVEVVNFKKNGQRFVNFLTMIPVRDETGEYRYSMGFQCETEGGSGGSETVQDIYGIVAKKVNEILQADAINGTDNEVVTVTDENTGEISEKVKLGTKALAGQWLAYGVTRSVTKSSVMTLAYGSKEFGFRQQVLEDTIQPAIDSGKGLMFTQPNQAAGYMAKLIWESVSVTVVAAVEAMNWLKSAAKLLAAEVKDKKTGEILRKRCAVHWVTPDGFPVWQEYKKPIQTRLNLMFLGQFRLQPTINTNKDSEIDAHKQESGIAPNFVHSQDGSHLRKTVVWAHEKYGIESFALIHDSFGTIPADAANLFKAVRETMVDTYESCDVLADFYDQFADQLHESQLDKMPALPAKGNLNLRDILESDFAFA

pMag (F1) fused to second half of 563 T7RNAP non-star variant, sequence (chain, as listed by the source mutant limits assumed): as the sequence (chain, as listed by the source limits assumed) above, with S225R counted along it

B1: N-terminal part of split T7 RNA polymerase (563 split) fused to nMag (protein)
chain: MNTINIAKNDFSDIELAAIPFNTLADHYGERLAREQLALEHESYEMGEARFRKMFERQLKAGEVADNAAAKPLITTLLPKMIARINDWFEEVKAKRGKRPTAFQFLQEIKPEAVAYITIKTTLACLTSADNTTVQAVASAIGRAIEDEARFGRIRDLEAKHFKKNVEEQLNKRVGHVYKKAFMQVVEADMLSKGLLGGEAWSSWHKEDSIHVGVRCIEMLIESTGMVSLHRQNAGVVGQDSETIELAPEYAEAIATRAGALAGISPMFQPCVVPPKPWTGITGGGYWANGRRPLALVRTHSKKALMRYEDVYMPEVYKAINIAQNTAWKINKKVLAVANVITKWKHCPVEDIPAIEREELPMKPEDIDMNPEALTAWKRAAAAVYRKDKARKSRRISLEFMLEQANKFANHKAIWFPYNMDWRGRVYAVSMFNPQGNDMTKGLLTLAKGKPIGKEGYYWLKIHGANCAGVDKVPFPERIKFIEENHENIMACAKSPLENTWWAEQDSPFCFLAFCFEYAGVQHHGLSYNCSLPLAFDGSCSGIQHFSAMLRDEVGGRAVNLLPGGSGGHTLYAPGGYDIMGYLDQIGNRPNPQVELGPVDTSCALILCDLKQKDTPIVYASEAFLYMTGYSNAEVLGRNCRFLQSPDGMVKPKSTRKYVDSNTINTIRKAIDRNAEVQVEVVNFKKNGQRFVNFLTIIPVRDETGEYRYSMGFQCETE
Consider B1, for which, in assay [1], the increase of Tyr1 production (initial rate of melanin production, OD405) in blue light, strain Opto-T7RNAP(563-F1) with pT7 tyr1, 1 mg/mL arabinose was determined as 5.35 fold and the increase of mCherry production in response to blue light, plate reader, strain Opto-T7RNAP(563-F1) with pT7 mCherry, 10 mg/mL arabinose was determined as 7.4 fold. Further, in assay [2], the average pixel intensity (16-bit fluorescence scan) of the blue-light-exposed region of the pT7-Opto pellicle (pixel intensity (16-bit)) was determined as 10400; the average pixel intensity (16-bit fluorescence scan) of the unexposed region of the pT7-Opto pellicle (pixel intensity (16-bit)) stood at 5520; the average red fluorescence of the light-exposed against the unexposed area of a K. rhaeticus pT7-Opto pellicle, fluorescence scan, 0.1% arabinose stood at 1.8 fold; the change in mCherry blue light response from dark to bright, flow cytometry, 96-well plate, 0.1% (w/v) arabinose was determined as 2.57 fold. In assay [2], this molecule returned a change in mCherry blue light response from dark to bright, flow cytometry, 96-well plate, no arabinose of 2.57 fold; a fold change of mCherry between dark and light states, flow cytometry, 96-well plate, 1% (w/v) arabinose of 1.33 fold; a fold change of mCherry between dark and light states, flow cytometry, 96-well plate, 10% (w/v) arabinose of 1.04 fold; a mCherry expression, blue light against dark culture, flow cytometry, K. rhaeticus pT7-Opto, 0.1% arabinose of 7.5 fold.
